Source: paper PMC9772344

Assays:
Conditions in all cases: transfected HeLa cells; n = 3 per group; parent: est. 1.0; read off a plot
Orai1 = Orai1 (UniProt Q96D31); experiment: Co-IP (GLT-1 capture antibody, immunoblot for Orai1, band quantification)
[1] = target: stromal-interacting molecule 1 (STIM1) (UniProt Q13586); experiment: Co-IP (GLT-1 capture antibody, immunoblot for STIM1, band quantification)
[2] = target: stromal-interacting molecule 1 (STIM1) (UniProt Q13586); experiment: Co-IP (STIM1 capture antibody, immunoblot for GLT-1, band quantification)

Chain of glutamate transporter GLT-1 (excitatory amino acid transporter 2, EAAT2), WT plasmid (P43006 whole entry, stated change not applied): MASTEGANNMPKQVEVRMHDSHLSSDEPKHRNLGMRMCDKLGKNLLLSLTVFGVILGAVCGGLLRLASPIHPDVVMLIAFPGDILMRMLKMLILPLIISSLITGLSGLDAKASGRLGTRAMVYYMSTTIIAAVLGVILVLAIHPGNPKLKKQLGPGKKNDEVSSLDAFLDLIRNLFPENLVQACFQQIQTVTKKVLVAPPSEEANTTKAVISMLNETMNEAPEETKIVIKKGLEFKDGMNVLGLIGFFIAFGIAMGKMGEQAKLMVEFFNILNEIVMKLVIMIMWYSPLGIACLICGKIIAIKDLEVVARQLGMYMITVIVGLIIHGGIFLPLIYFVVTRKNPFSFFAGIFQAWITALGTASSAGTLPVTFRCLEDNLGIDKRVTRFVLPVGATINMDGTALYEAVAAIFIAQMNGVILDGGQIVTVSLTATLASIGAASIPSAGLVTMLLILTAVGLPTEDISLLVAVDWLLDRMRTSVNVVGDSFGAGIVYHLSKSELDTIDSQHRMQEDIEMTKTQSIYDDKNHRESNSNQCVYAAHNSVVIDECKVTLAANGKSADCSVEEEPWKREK
Chain of stromal-interacting molecule 1 (STIM1) (Q13586 23-685): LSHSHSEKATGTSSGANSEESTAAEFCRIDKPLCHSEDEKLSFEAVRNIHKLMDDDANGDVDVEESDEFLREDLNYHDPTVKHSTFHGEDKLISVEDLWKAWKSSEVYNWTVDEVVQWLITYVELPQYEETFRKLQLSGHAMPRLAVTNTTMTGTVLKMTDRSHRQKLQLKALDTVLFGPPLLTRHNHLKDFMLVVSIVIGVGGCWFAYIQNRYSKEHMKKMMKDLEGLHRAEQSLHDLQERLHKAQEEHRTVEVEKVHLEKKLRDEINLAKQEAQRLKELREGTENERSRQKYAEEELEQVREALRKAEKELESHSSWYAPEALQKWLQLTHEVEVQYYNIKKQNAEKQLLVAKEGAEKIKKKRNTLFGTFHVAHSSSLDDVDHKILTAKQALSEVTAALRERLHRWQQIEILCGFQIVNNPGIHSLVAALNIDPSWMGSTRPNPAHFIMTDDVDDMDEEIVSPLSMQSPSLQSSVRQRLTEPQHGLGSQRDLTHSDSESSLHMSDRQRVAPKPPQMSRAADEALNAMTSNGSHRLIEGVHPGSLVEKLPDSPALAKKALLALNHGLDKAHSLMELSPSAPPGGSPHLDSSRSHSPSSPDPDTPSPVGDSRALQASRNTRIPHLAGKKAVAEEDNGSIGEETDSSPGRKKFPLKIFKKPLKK
Chain of Orai1 (Q96D31 whole entry): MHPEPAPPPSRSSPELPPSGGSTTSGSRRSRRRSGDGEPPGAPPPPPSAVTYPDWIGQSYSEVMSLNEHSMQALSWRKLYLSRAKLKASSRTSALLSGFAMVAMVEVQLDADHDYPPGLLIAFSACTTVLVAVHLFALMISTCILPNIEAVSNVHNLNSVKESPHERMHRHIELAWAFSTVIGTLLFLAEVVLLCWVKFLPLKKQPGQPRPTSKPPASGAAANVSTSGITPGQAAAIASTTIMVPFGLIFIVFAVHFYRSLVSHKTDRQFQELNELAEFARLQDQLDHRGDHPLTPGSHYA

“glutamate transporter GLT-1 (excitatory amino acid transporter 2, EAAT2), WT plasmid (from UniProt P43006) P289R” was tested, and the response (relative band intensity) (Orai1) was 0.15, the response (relative band intensity) [1] was 0.1 and the response (relative band intensity) [2] was 0.1.
